Here are results for one molecule from paper PMC6185872 (Cell Host & Microbe, 2018).

The term stoichiometry N denotes the number of molecules, sites or subunits per partner or assembly.

The target in test [1] is T1, sCD4 D1D2 (domains 1 and 2; residues 1-186 of mature CD4).
T1 construct: also called soluble CD4; source: HEK293-6E, transient transfection, purified (Ni-NTA, SEC)
The test is described as follows: cryo-EM structure. Conditions: both partners purified.

Test [2] has as its target T2, B41 SOSIP.664 v4.2 (HIV-1 (clade B B41)).
T2 construct: copies: 3 + 3
Description: cryo-EM structure. Conditions: both partners purified.

B1: 21c Fab (Fab, V domains shown)
VH: QVQVVQSGAEVRKPGASVKVSCKVSGFTLTGLSIHWVRQAPGKGLEWMGGFGPEENEIIYAQKFQGRVSMTEDTSTNTAYMELSSLRSEDTAVYYCATGGNYYNLWTGYYPLAYWGQGTLVTVSS
VL: QSVLTQPPSVSAAPGQKVTISCSGSSSNIGKNYVSWYQQLPGAAPKLLIFDDTQRPSGIPDRFSGSKSGTSATLAITGLQTGDEADYYCGTWDSSLSTGQLFGGGTKLTVL
notes: also called CD4i antibody 21c
In the case of B1, the binding result in test [1] is given as “binds”. Moreover, the “stoichiometry N” value in test [2] came out at 3 copies per Env trimer.
